The labels stand for the following.
B1: Pistol ribozyme (parent)
chain: GGGUCGUUGUUCCAUAAUCGCGUGGAUAUGGCACGCAAGUUUCUACCGGGCACCGUAAAUGUCCGACUGGAGCCGUUCGGGCGGCUAUAAACAGACCUCAGGCCCGAAGCGUGGCGGCACCUGCCGCCGGUGGUAAAAAAGAUCGGAAGAGCACACGUCU

The data set covers variants of B1. The data set is described as follows: aptazyme ON/OFF ratio, guanine; higher = stronger switching; co-transcriptional cleavage with and without guanine.
Turning to U7A U8G G9C U10G C12U, the “aptazyme ON/OFF ratio” value stood at 1.44. In the case of U7A U8G G9C U10G C12G it was 1.15. With U8A G9A U10G U11G C12A C13G the figure was 1.27.

For U7A U10A U11G C12U C13G, the “aptazyme ON/OFF ratio” value amounted to 1.45. Turning to U8C G9A U10C C12G, the “aptazyme ON/OFF ratio” value stood at 1.24. With U7A U8G G9C U10A C13U the figure was 1.3; with U7C G9A U10A U11C C12A C13U, 1.24; with U7G U8C G9A U11C C12A C13U, 1.5. In the case of U7C G9U U10A U11C C12U C13A it was 1.23; in that of U7G U8C G9U U10G U11A C13U, 1.12. For U7G U8G U10A C12G, the “aptazyme ON/OFF ratio” value came to 1.29.

For U7A U8C G9A U11C C12U C13U, the “aptazyme ON/OFF ratio” value amounted to 1.19. Consider U7A U8G G9U U10G C12U, for which the “aptazyme ON/OFF ratio” value amounted to 1.28.

For U8A G9U U10G U11A C12A C13G, the “aptazyme ON/OFF ratio” value worked out at 1.16. On to U7C U8C G9U U10C U11G C13U, for which the “aptazyme ON/OFF ratio” value was found to be 1.29.

Turning to U8G U11G C13A, the “aptazyme ON/OFF ratio” value worked out at 1.04.

Consider U7A U8C U11C C13G, for which the “aptazyme ON/OFF ratio” value came to 1.13.

For U7A U8C G9A U10A U11G C12U, the “aptazyme ON/OFF ratio” value is 1.45.

On to U7G U8C U10C U11G C13A, for which the “aptazyme ON/OFF ratio” value stood at 1.23. In the case of U7C U8G G9C U10G C12U C13A it was 1.24. In the case of U7G G9A U11C C12G C13A it was 1.11; in that of U8G G9C U11G C12A C13A, 1.08. In the case of U7G U8A G9C U10C U11A C13G it was 1.06; in that of U7C U8A G9U U11A C12U, 1.06. Take U7A U8G G9A U11G C12A C13G: the “aptazyme ON/OFF ratio” value is 1.39. On to U7G U8C G9C C12G C13U, for which the “aptazyme ON/OFF ratio” value was 1.09. Regarding U7G U8C G9A U10G C12U C13A, the “aptazyme ON/OFF ratio” value was 1.12. For the variant U7C U8G U10C U11A C13A, the “aptazyme ON/OFF ratio” value came to 1.32. For the variant U7G U8A G9A U10A C12U C13A, the “aptazyme ON/OFF ratio” value is 1.13. Take U8A G9U U11A C12A: the “aptazyme ON/OFF ratio” value was found to be 1.28. With U7A U8C U10G C13U, the “aptazyme ON/OFF ratio” value was found to be 1.31. In the case of U8A G9A U11C C12U C13U it was 1.21; in that of U7A U8G G9A U10A U11C C12A, 1.44; in that of U7A U11C C12G, 1.08. With U7G U10A U11C C12A C13A the figure was 1.12; with U8G G9C U10A U11G, 1.18. With U8C U10C U11A C13U the figure was 1.28; with U7A U10C U11C C12U C13U, 1.07; with U7C U8C G9U C13U, 1.23. On to U7C U8C G9U C13G, for which the “aptazyme ON/OFF ratio” value is 1.03. In the case of U8G G9A U10A U11C C12G C13A, the “aptazyme ON/OFF ratio” value worked out at 1.24. Regarding U8G G9C U10C U11C C12U C13A, the “aptazyme ON/OFF ratio” value is 1.04. In the case of U7G G9C U10A U11G C12A it was 1.15.

U7A U8A G9U U10G U11C C12U C13G: the “aptazyme ON/OFF ratio” value was found to be 1.22. With U8C G9C U11C C12G C13U the figure was 1.15; with U7G U8A G9C C12A, 1.02. As to U7G U8G G9U U10C U11G C12G, the “aptazyme ON/OFF ratio” value was 1.39. In the case of U7G G9U U11A C12U C13G it was 1.27; in that of U8C G9A U10A C12A C13U, 1.31; in that of U7C U8C G9U U10A U11A C12G C13A, 1.03.

With U8C G9C U10G C12G C13G, the “aptazyme ON/OFF ratio” value came out at 1.09.

Turning to U7C U8G G9C U10C U11G C12G, the “aptazyme ON/OFF ratio” value was 1.09. As for U7A U8A G9A U10G U11C C12G, the “aptazyme ON/OFF ratio” value was 1.13. As to U7C G9A U11A C13U, the “aptazyme ON/OFF ratio” value worked out at 1.13. As for U8G G9U U11G C12G C13G, the “aptazyme ON/OFF ratio” value was 1.36. In the case of U7C U8A U10C C12U it was 3.73; in that of U7G U8A G9C U10C C12G, 1.07; in that of U7C U8G G9U U10G U11G C12G C13G, 1.24.

Turning to U7C U8A G9U U10C U11C C12U C13A, the “aptazyme ON/OFF ratio” value turned out to be 1.03. With U8A G9U U10A U11C C12A the figure was 1.07; with U7A U8G U10G C12A C13G, 1.12; with U8G G9C U10C U11G C12G, 1.1. With U8G U10G U11C C12G C13U the figure was 1.13; with U7A U8A U11C C12U C13U, 1.59. In the case of U8C G9A U11G C12U C13A it was 1.34; in that of U7C G9U U11A C13U, 1.25; in that of U7G U10C C12U, 1.2. On to U7A U10A C12U, for which the “aptazyme ON/OFF ratio” value was found to be 1.1. Take U8G G9A U11A C12A C13A: the “aptazyme ON/OFF ratio” value came to 1.19. U8G G9C U11C: the “aptazyme ON/OFF ratio” value came to 1.03.

Take U8C U10G U11A C12U: the “aptazyme ON/OFF ratio” value was 1.08. With G9U U11C C12A C13U the figure was 1.36; with U7C U8C G9C C12G C13A, 1.08; with U8C G9U U11G C12U C13U, 1.14.

On to U10A U11A C12A C13U, for which the “aptazyme ON/OFF ratio” value is 1.47.

Take U8A G9U U10G U11A: the “aptazyme ON/OFF ratio” value was found to be 1.07. In the case of U8A G9U U10G U11C it was 1.06.

On to U7A U8C G9U U10C U11C C12U C13U, for which the “aptazyme ON/OFF ratio” value came to 1.1. U7A U8C U10A U11C C12A C13G: the “aptazyme ON/OFF ratio” value turned out to be 1.17. For the variant U7G U10G U11C C12U C13G, the “aptazyme ON/OFF ratio” value was 1.3. In the case of U7A U8A G9C U11G C12U C13U it was 1.09. Regarding U7A U8G G9U U10A U11A C12U, the “aptazyme ON/OFF ratio” value was found to be 1.32. With U7C U8A U10G C12A C13A, the “aptazyme ON/OFF ratio” value was 1.2. With U7C U8C G9A U10A C13A the figure was 1.15.

Source of the values: the RNAGym collection of RNA variant scans (doi:10.1021/acssynbio.7b00057).
